Values belong to the compound of their own block, whether it stands above or below them. Ends that are not written are not given here. * marks the point of attachment. Biotin = O=C1N[C@H]2[C@H](CS[C@H]2CCCCC(=O)*)N1
Columns and labels:
[1] = biological target: T1, SF-1 LBD / TIF2 co-activator motif interaction (Mus musculus, UniProt P33242); experiment: AlphaScreen assay of SF-1 binding to TIF2 co-activator LxxLL motif in absence or presence of phospholipids; type: biochemical; details: for EC50: in the presence of 10% ethanol, FIG. 5E, read-out: potency (EC50) for recovering the SF-1/TIF2 binding activity
T1 construct: The mouse SF1 LBD (residues 221-462) was expressed as a 6×His fusion protein; made in house; host or cells: E. coli BL21 (DE3), pET24a
T1 sequence (P33242 221-462): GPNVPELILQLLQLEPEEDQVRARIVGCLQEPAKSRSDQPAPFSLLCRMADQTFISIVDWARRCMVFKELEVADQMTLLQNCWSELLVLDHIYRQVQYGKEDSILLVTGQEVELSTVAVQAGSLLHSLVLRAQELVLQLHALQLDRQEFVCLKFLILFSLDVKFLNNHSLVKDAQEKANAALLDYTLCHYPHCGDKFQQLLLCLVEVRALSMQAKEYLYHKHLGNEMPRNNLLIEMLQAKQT
Procedure: The mouse SF1 LBD (residues 221-462) was expressed as a 6×His fusion protein from the expression vector pET24a (Novagen). BL21 (DE3) cells transformed with this expression plasmid were grown in LB broth at 16° C. to an OD600 of ˜1.0 and induced with 0.1 mM isopropylthio-β-D-galactoside (IPTG) for 16 hours. Cells were harvested, resuspended in 400 ml extract buffer (20 mM Tris pH8.0, 150 mM NaCl, 10% glycerol) per 6 l. of cells, and passed 3 times through a French Press with pressure set at 1000 pa. The lysate was centrifuged at 20,000 rpm for 30 minutes and the supernatant was loaded onto a 50 ml Ni-NTA column (Qiagen). The column was washed with extract buffer and the protein eluted with 300 ml gradient to buffer B (10 mM Tris, PH8.0, 150 mM NaCl, 10% glycerol and 500 mM imidazole). The protein was further purified with a Q-Sepharose column (Amersham Biosciences). A typical yield of the purified protein was about 100 mg from each liter of cells. To prepare the protein-cofactor complex, we added a 2-fold excess of the SHP peptide ([…]; SEQ ID NO:1) to the purified protein, followed by filter concentration to 15 mg/ml.
(§1) All phospholipids were purchased from Sigma and stored according to the manufacturer's instructions. The binding of the various peptide motifs to SF-1 was determined by AlphaScreen™ assays from Perkins-Elmer as described recently for other nuclear receptors (Xu et al., 2002). Wild type SF-1 and the mutated LBDs were purified as 6×His tag fusion proteins for the assays. The experiments were conducted with approximately 20-30 nM receptor LBD and 20 nM of biotinylated TIF2 peptide or other co-activator peptides in the presence of 5 μg/ml donor and acceptor beads in a buffer containing 50 mM MOPS, 50 mM NaF, 0.05 mM CHAPS, and 0.1 mg/ml bovine serum albumin, all adjusted to pH 7.4. An AlphaScreen kit for detection of hexa-His was used in this experiment and the binding signals for the TIF2/SF-1 interaction were detected in the absence or the presence of exogenous phospholipids. EC50/IC50 values for the effects of phospholipids on TIF2 binding to SF-1 were determined from a nonlinear least square fit of the data based on an average of three repeated experiments with standard errors typically less than 10% of measurements.

[2] = biological target: T2, SF-1 LBD (Mus musculus, UniProt P33242); experiment: AlphaScreen binding of LxxLL / co-repressor motif peptides to purified SF-1 LBD; details: FIG. 1A
T2 construct: The mouse SF1 LBD (residues 221-462) was expressed as a 6×His fusion protein; made in house; host or cells: E. coli BL21 (DE3), pET24a
T2 sequence (P33242 221-462): as above
Procedure: A. Binding of various LxxLL motifs to the purified SF-1 LBD as measured by AlphaScreen™ assays. The background reading of either SF-1 or the peptides alone is less than 200. The peptide sequences are listed in experimental procedures. The results are the average of three experiments (error bars=standard deviation).
as §1
The peptides with an N-terminal biotinylation are listed below.

[3] = system: mutated SF-1 LBD (pocket residue to tryptophan mutants); experiment: AlphaScreen assay: effect of 12PE on restoring co-activator binding of mutated SF-1 receptors; type: biochemical, mouse; details: 12PE 1.25 μM, FIG. 6E
Procedure: E. Effects of 12PE (1.25 μM) on restoring TIF2 binding activity of mutated SF-1 receptors.
as §1, with “EC50/IC50 values for the effects of phospholipids on TIF2 binding to SF-1 were determined from a nonlinear least square fit of the data based on an average of three repeated experiments with standard errors typically less than 10% of measurements.” left out
The SF-1 pocket comprises 51 residues that form intimate contacts with the bound phospholipid ligand. […] All mutated receptors expressed well and were readily purified for AlphaScreen assays that measure SF-1 recruitment of three different co-activator motifs that show interactions with SF-1 in FIG. 1A.

loss of the SF-1/TIF2 binding activity ([1]; 10% ethanol added to the binding buffer): > 90%
Compound: CCO [ethanol]

interaction of peptide motif with purified SF-1 [2]: not
Compound: second SHP LxxLL motif: N-terminally biotinylated peptide VABAPVPSILKKILLEEPNS (SEQ ID NO:6)

interaction of peptide motif with purified SF-1 [2]: not
Compound: CBP: N-terminally biotinylated peptide SGNLVPDAASKHKQLSELLRGGSG (SEQ ID NO:8) (Biotin-SGNLVPDAASKHKQLSELLRGGSG; listed as Mus musculus)

interaction of peptide motif with purified SF-1 [2]: not
Compound: TRAP220: N-terminally biotinylated peptide GHGEDFSKVSQNPILTSLLQITGN (SEQ ID NO:7) (Biotin-GHGEDFSKVSQNPILTSLLQITGN; listed as Mus musculus)

interaction of peptide motif with purified SF-1 [2]: did not interact
Compound: SMRT: N-terminally biotinylated co-repressor motif peptide QAVQEHASASTNMGLEAIIRKALMGKY (SEQ ID NO:10) (Biotin-QAVQEHASASTNMGLEAIIRKALMGKY; listed as Mus musculus)

The remaining lines, values behind:

Compound: CCCCCCCCCCCCCC(=O)OC[C@H](COP(=O)(O)OCCN)OC(=O)CCCCCCCCCCCCC [14PE, 1,2-dimyristoyl-sn-glycero-3-phosphoethanolamine]
EC50 [1]: 64 nM

Compound: CCCCCCCCCCCCCCCC(=O)OC[C@H](COP(=O)([O-])OCC[N+](C)(C)C)OC(=O)CCCCCCCCCCCCCCC [16PC, 1,2-dihexadecanoyl-sn-glycero-3-phosphocholine]
EC50 [1]: 80 to 120 nM

Compound: first LxxLL motif of SHP: N-terminally biotinylated peptide PCQGSASHPTILYTLLSPGP (SEQ ID NO:5) (Biotin-PCQGSASHPTILYTLLSPGP; listed as Mus musculus)
interaction of peptide motif with purified SF-1 [2]: able to interact

Compound: N-COR: N-terminally biotinylated co-repressor motif peptide GHSFADPASNLGLEDIIRKALMGSF (SEQ ID NO:9)
interaction of peptide motif with purified SF-1 [2]: did not interact

Compound: CCCCCCCCCCCC(=O)OC[C@H](COP(=O)(O)OCCN)OC(=O)CCCCCCCCCCC [12PE, 1,2-Didodecanoyl-sn-glycero-3-phosphoethanolamine]
EC50 [1]: 66 nM
restoration of co-activator binding of SF-1 mutants A270W, L266W and L348W [3]: completely restored
restoration of co-activator binding of SF-1 mutants L345W, V349W and A434W [3]: cannot be restored

Compound: TIF2 peptide: N-terminally biotinylated peptide QEPVSPKKKENALLRYLLDKDDTKD (SEQ ID NO:2), third LxxLL motif of co-activator TIF2
AlphaScreen signal on incubation of SF-1 with peptide ([2]; background of SF-1 or peptide alone less than 200): ~45,000 photo counts

Compound: SRC-1 fourth LxxLL motif: N-terminally biotinylated peptide QKPTSGPQTPQAQQKSLLQQLLTE (SEQ ID NO:4) (Biotin-QKPTSGPQTPQAQQKSLLQQLLTE; listed as Mus musculus)
interaction of peptide motif with purified SF-1 [2]: able to interact

Compound: SRC-1 second LxxLL motif: N-terminally biotinylated peptide SPSSHSSLTERHKILHRLLQEGSP (SEQ ID NO:3) (Biotin-SPSSHSSLTERHKILHRLLQEGSP; listed as Mus musculus)
interaction of peptide motif with purified SF-1 [2]: able to interact

Compound: CCCCC/C=C\C/C=C\CCCCCCCC(=O)OC[C@H](COP(=O)([O-])OCC[N+](C)(C)C)OC(=O)CCCCCCC/C=C\C/C=C\CCCCC [18PCD, 1,2-dilinoleonyl-sn-glycerol-3-phosphocholine]
effect on high basal SF-1/TIF2 interaction ([1]; absence of ethanol, FIG. 5D): disrupted the high basal interactions of SF-1 with TIF2 in a dose dependent manner
IC50 ([1]; absence of ethanol, high basal interaction, FIG. 5D, read-out: IC50 for inhibiting the SF-1/TIF2 interactions): 100 to 300 nM

Source: patent US20070026059A1, “Ligands for orphan nuclear hormone receptor steroidogenic factor-1 (SF-1)” (priority 2005, published 2007)
